As usually defined, the Kd is the concentration at which binding is half-saturated. Lower therefore signals tighter binding. As a reminder, the stoichiometry N is the number of molecules, sites or subunits per partner or assembly.

This is an account of results in publication PMC10276003, “Regulation of microRNA expression by the adaptor protein GRB2” (Scientific Reports, 2023).

What all share (details): both partners purified
Assay [1] has as its target T1, His-tagged GRB2 (UniProt P62993 1-217).
T1 construct: For the MST with DICER1^CT and AGO2 the text writes only GRB2; also called His-GRB2
The assay is described as follows: ITC; 1.2 mM peptide titrated into 80 uM His-tagged GRB2; 25 C; 20 mM Tris-HCl pH 8, 150 mM NaCl, 1 mM beta-mercaptoethanol. For orientation: Isothermal titration calorimetry measures the heat released or taken up as one component is titrated into another.

Assay [2] addresses T2, AGO2 pre-incubated with GRB2 (GRB2-AGO2 complex) (human | , UniProt Q9UKV8 1-859; P62993 1-217, labelled with Atto 488 NHS ester).
T2 construct: Argonaute 2 (AGO2), human; as m20; as m12; The complex was not isolated: labelled AGO2 (100 nM) stood with an excess of GRB2; source: E. coli BL21(DE3), both purified; AGO2 incubated with 25 or 50 uM GRB2 before the MST
Nature of the assay: MST; 2.29 to 75,000 nM unlabelled DICER1^CT with 100 nM Atto 488-labelled AGO2 pre-incubated with 50 uM GRB2; 20 mM HEPES, 150 mM NaCl, 1 mM TCEP pH 7.5.

Assay [3] addresses T3, AGO2 (purified as GST-AGO2, GST cleaved) (human, UniProt Q9UKV8 1-859, labelled with Atto 488 NHS ester).
T3 construct: Argonaute 2 (AGO2), human; source: E. coli BL21(DE3), purified (RNase, glutathione superflow resin, Superdex 75; GST cleaved with thrombin)
The assay is described as follows: MST; 2.29 to 75,000 nM unlabelled DICER1^CT with 100 nM Atto 488-labelled AGO2, no GRB2; 20 mM HEPES, 150 mM NaCl, 1 mM TCEP pH 7.5.

The target in assay [4] is T2, AGO2 pre-incubated with GRB2 (GRB2-AGO2 …). Nature of the assay: MST; 2.29 to 75,000 nM unlabelled DICER1^CT with 100 nM Atto 488-labelled AGO2 pre-incubated with 25 uM GRB2; 20 mM HEPES, 150 mM NaCl, 1 mM TCEP pH 7.5.
The target of assay [5] is T1, His-tagged GRB2. The assay is described as follows: ITC; 500 uM MBP-tagged AGO2 domain titrated into 20 uM His-tagged GRB2; 25 C; 20 mM Tris-HCl pH 8, 150 mM NaCl, 10% glycerol, 1 mM beta-mercaptoethanol; one-site model with n fixed at 1.

T1 sequence (P62993 whole entry): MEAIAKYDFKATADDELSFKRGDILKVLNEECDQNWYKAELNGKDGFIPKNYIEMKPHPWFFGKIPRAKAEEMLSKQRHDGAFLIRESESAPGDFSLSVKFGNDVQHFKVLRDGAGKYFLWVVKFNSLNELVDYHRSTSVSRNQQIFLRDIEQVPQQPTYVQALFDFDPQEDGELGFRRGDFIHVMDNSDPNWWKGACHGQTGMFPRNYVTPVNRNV
T2 sequence (Q9UKV8 whole entry, chain 1 of 2): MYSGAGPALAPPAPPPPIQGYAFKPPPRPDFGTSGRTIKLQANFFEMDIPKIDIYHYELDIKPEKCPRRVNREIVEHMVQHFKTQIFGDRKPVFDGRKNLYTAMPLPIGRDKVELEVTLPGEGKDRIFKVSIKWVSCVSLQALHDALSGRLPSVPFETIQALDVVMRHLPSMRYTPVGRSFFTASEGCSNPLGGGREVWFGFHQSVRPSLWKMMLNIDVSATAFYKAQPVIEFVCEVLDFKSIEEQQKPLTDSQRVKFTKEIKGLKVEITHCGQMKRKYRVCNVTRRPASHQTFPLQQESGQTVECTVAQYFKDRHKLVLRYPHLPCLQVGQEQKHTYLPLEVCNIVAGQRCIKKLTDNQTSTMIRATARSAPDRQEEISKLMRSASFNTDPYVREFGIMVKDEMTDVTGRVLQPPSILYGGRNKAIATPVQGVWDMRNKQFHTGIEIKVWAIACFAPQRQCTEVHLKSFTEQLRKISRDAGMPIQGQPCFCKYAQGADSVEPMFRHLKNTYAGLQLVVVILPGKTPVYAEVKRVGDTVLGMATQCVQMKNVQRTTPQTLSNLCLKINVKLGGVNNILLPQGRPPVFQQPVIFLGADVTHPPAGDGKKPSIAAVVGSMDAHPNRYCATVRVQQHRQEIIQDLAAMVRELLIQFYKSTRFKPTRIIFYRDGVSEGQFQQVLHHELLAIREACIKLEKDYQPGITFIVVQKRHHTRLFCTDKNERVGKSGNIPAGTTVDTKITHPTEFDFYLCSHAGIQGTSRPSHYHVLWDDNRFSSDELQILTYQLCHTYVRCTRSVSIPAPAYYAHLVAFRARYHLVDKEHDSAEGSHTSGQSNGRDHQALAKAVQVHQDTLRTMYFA
T2 sequence (P62993 whole entry, chain 2 of 2): as the sequence (P62993 whole entry) above
T3 sequence (Q9UKV8 whole entry): as the sequence (Q9UKV8 whole entry, chain 1 of 2) above

B1: PRM-containing peptide from the AGO2 PAZ domain (residues 317-333) (peptide)
peptide: KLVLRYPHLPCLQVGQE
notes: Argonaute 2 (AGO2), human, PAZ domain, residues 317-333; also called peptide spanning the proline-rich motif 323PHLP326
In the assay with His-tagged GRB2 [1], B1 came in with a Kd of 4.27 ± 1.17 µM.

B2: C-terminal domain of DICER1 (DICER1^CT, residues 1276-1922) (domain or fragment, UniProt Q9UPY3 1276-1922, looked up)
chain: DSEQSPSIGYSSRTLGPNPGLILQALTLSNASDGFNLERLEMLGDSFLKHAITTYLFCTYPDAHEGRLSYMRSKKVSNCNLYRLGKKKGLPSRMVVSIFDPPVNWLPPGYVVNQDKSNTDKWEKDEMTKDCMLANGKLDEDYEEEDEEEESLMWRAPKEEADYEDDFLEYDQEHIRFIDNMLMGSGAFVKKISLSPFSTTDSAYEWKMPKKSSLGSMPFSSDFEDFDYSSWDAMCYLDPSKAVEEDDFVVGFWNPSEENCGVDTGKQSISYDLHTEQCIADKSIADCVEALLGCYLTSCGERAAQLFLCSLGLKVLPVIKRTDREKALCPTRENFNSQQKNLSVSCAAASVASSRSSVLKDSEYGCLKIPPRCMFDHPDADKTLNHLISGFENFEKKINYRFKNKAYLLQAFTHASYHYNTITDCYQRLEFLGDAILDYLITKHLYEDPRQHSPGVLTDLRSALVNNTIFASLAVKYDYHKYFKAVSPELFHVIDDFVQFQLEKNEMQGMDSELRRSEEDEEKEEDIEVPKAMGDIFESLAGAIYMDSGMSLETVWQVYYPMMRPLIEKFSANVPRSPVRELLEMEPETAKFSPAERTYDGKVRVTVEVVGKGKFKGVGRSYRIAKSAAARRALRSLKANQPQVPNS
modifications: labelled with Atto 488 NHS ester in the MST with GRB2; unlabelled in the MST with AGO2
notes: DICER1, residues 1276-1922, with the RNase III domains; also called DICER1 C-terminal region
Consider B2, for which the Kd was determined as 4.6 ± 0.6 µM in assay [2], 17.6 ± 1.7 µM in assay [3] and 7.9 ± 1.3 µM in assay [4].

B3: MBP-tagged AGO2 PAZ domain (residues 235-348) (domain or fragment)
chain: not shown
notes: Argonaute 2 (AGO2), human, PAZ domain, residues 235-348, in pMAL-c5x; The methods say that RNA was left in the PAZ preparation; also called MBP-PAZ; PAZ WT; source: E. coli BL21(DE3), purified (MBPTrap HP, SEC); not shown: MBP, N-terminal, kept
As for B3, in the assay with His-tagged GRB2 [5], binding was put at a Kd of 0.585 ± 0.061 µM and the “stoichiometry N” value stood at 1.
